IntAct's records for PubMed 31515488

B1: Charged multivesicular body protein 4a (Homo sapiens), Q9BY43 (parent)
chain: MSGLGRLFGKGKKEKGPTPEEAIQKLKETEKILIKKQEFLEQKIQQELQTAKKYGTKNKRAALQALRRKKRFEQQLAQTDGTLSTLEFQREAIENATTNAEVLRTMELAAQSMKKAYQDMDIDKVDELMTDITEQQEVAQQISDAISRPMGFGDDVDEDELLEELEELEQEELAQELLNVGDKEEEPSVKLPSVPSTHLPAGPAPKVDEDEEALKQLAEWVS
partner: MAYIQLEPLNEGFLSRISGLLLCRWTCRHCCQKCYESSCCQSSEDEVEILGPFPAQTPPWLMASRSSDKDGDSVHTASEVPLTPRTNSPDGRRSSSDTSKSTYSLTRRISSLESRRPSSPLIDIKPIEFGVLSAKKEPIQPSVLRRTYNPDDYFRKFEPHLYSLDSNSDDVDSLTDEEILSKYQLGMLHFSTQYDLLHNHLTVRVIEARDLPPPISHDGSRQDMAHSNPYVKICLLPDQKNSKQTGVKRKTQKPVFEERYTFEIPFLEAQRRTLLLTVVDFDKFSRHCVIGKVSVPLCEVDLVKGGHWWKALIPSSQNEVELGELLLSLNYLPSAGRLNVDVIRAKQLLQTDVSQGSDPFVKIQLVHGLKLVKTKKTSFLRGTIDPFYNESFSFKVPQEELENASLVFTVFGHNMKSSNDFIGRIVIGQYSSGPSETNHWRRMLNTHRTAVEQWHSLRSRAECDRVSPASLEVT
B2: Nucleoplasmin-3 (Homo sapiens), O75607 (parent)
chain: MAAGTAAALAFLSQESRTRAGGVGGLRVPAPVTMDSFFFGCELSGHTRSFTFKVEEEDDAEHVLALTMLCLTEGAKDECNVVEVVARNHDHQEIAVPVANLKLSCQPMLSLDDFQLQPPVTFRLKSGSGPVRITGRHQIVTMSNDVSEEESEEEEEDSDEEEVELCPILPAKKQGGRP
partner: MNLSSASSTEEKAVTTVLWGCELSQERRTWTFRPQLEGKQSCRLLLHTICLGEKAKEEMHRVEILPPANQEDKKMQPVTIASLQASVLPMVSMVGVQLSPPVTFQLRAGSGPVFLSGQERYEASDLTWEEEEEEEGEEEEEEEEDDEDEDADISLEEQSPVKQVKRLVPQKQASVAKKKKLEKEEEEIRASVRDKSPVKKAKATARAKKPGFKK
B3: Zinc finger protein RFP (Homo sapiens), P14373 (parent)
chain: MASGSVAECLQQETTCPVCLQYFAEPMMLDCGHNICCACLARCWGTAETNVSCPQCRETFPQRHMRPNRHLANVTQLVKQLRTERPSGPGGEMGVCEKHREPLKLYCEEDQMPICVVCDRSREHRGHSVLPLEEAVEGFKEQIQNQLDHLKRVKDLKKRRRAQGEQARAELLSLTQMEREKIVWEFEQLYHSLKEHEYRLLARLEELDLAIYNSINGAITQFSCNISHLSSLIAQLEEKQQQPTRELLQDIGDTLSRAERIRIPEPWITPPDLQEKIHIFAQKCLFLTESLKQFTEKMQSDMEKIQELREAQLYSVDVTLDPDTAYPSLILSDNLRQVRYSYLQQDLPDNPERFNLFPCVLGSPCFIAGRHYWEVEVGDKAKWTIGVCEDSVCRKGGVTSAPQNGFWAVSLWYGKEYWALTSPMTALPLRTPLQRVGIFLDYDAGEVSFYNVTERCHTFTFSHATFCGPVRPYFSLSYSGGKSAAPLIICPMSGIDGFSGHVGNHGHSMETSP
partner: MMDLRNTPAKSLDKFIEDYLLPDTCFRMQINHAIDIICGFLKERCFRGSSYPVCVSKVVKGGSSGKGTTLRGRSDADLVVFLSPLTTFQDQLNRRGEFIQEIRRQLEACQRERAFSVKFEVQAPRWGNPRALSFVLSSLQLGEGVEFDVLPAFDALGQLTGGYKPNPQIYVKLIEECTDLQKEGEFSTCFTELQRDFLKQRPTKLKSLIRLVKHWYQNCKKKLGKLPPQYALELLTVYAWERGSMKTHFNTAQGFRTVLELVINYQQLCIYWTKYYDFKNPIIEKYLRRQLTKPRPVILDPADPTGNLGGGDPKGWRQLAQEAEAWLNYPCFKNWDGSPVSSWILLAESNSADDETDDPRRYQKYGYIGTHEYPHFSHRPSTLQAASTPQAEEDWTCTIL
B4: Nuclear pore glycoprotein p62 (Homo sapiens), P37198 (parent)
chain: MSGFNFGGTGAPTGGFTFGTAKTATTTPATGFSFSTSGTGGFNFGAPFQPATSTPSTGLFSLATQTPATQTTGFTFGTATLASGGTGFSLGIGASKLNLSNTAATPAMANPSGFGLGSSNLTNAISSTVTSSQGTAPTGFVFGPSTTSVAPATTSGGFSFTGGSTAQPSGFNIGSAGNSAQPTAPATLPFTPATPAATTAGATQPAAPTPTATITSTGPSLFASIATAPTSSATTGLSLCTPVTTAGAPTAGTQGFSLKAPGAASGTSTTTSTAATATATTTSSSSTTGFALNLKPLAPAGIPSNTAAAVTAPPGPGAAAGAAASSAMTYAQLESLINKWSLELEDQERHFLQQATQVNAWDRTLIENGEKITSLHREVEKVKLDQKRLDQELDFILSQQKELEDLLSPLEELVKEQSGTIYLQHADEEREKTYKLAENIDAQLKRMAQDLKDIIEHLNTSGAPADTSDPLQQICKILNAHMDSLQWIDQNSALLQRKVEEVTKVCEGRRKEQERSFRITFD
partner: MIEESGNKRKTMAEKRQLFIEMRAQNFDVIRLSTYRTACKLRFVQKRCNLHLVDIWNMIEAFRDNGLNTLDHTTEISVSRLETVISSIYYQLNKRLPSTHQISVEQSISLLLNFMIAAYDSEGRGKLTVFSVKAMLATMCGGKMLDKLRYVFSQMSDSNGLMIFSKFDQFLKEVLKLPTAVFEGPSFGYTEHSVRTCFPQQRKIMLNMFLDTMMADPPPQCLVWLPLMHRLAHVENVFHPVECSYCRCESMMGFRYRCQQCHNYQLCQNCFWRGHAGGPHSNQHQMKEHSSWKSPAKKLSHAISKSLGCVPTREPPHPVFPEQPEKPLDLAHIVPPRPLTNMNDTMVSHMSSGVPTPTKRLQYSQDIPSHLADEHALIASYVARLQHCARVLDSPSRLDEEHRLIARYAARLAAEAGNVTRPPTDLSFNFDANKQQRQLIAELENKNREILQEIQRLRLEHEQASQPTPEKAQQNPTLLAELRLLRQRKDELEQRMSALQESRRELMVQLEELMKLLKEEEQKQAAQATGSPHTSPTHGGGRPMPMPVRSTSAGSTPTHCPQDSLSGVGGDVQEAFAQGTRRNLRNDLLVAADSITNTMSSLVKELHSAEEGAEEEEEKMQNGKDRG
B5: Zinc finger protein Aiolos (Homo sapiens), Q9UKT9-1 (parent)
chain: MEDIQTNAELKSTQEQSVPAESAAVLNDYSLTKSHEMENVDSGEGPANEDEDIGDDSMKVKDEYSERDENVLKSEPMGNAEEPEIPYSYSREYNEYENIKLERHVVSFDSSRPTSGKMNCDVCGLSCISFNVLMVHKRSHTGERPFQCNQCGASFTQKGNLLRHIKLHTGEKPFKCHLCNYACQRRDALTGHLRTHSVEKPYKCEFCGRSYKQRSSLEEHKERCRTFLQSTDPGDTASAEARHIKAEMGSERALVLDRLASNVAKRKSSMPQKFIGEKRHCFDVNYNSSYMYEKESELIQTRMMDQAINNAISYLGAEALRPLVQTPPAPTSEMVPVISSMYPIALTRAEMSNGAPQELEKKSIHLPEKSVPSERGLSPNNSGHDSTDTDSNHEERQNHIYQQNHMVLSRARNGMPLLKEVPRSYELLKPPPICPRDSVKVINKEGEVMDVYRCDHCRVLFLDYVMFTIHMGCHGFRDPFECNMCGYRSHDRYEFSSHIARGEHRALLK
partner: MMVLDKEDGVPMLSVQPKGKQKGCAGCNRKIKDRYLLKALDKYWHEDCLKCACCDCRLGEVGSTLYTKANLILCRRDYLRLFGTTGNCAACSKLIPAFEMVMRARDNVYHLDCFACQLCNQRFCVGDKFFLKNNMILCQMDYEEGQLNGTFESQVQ

Variants of: B1
Conditions: with syt17_human SYT17, Q9BSW7

effect of a mutation on the interaction	Variant
with no effect	G153R

Variants of: B2
Conditions: with npm2_human NPM2, Q86SE8

effect of a mutation on the interaction	Variant
with no effect	E149K

Variants of: B3
Conditions: with oas1_human OAS1, P00973

effect of a mutation on the interaction	Variant
disrupting interaction strength	N355S

Variants of: B4
Conditions: with dtnb_human DTNB

effect of a mutation on the interaction	Variant
with no effect	A279T

Variants of: B5
Conditions: with rbtn1_human LMO1, P25800

effect of a mutation on the interaction	Variant
with no effect	I338M

Variants of: B5
Conditions: with rbtn1_human LMO1, P25800
Remark: another data set of the same source

effect of a mutation on the interaction	Variant
with no effect	A24V
